Measurements: patent US20140120109A1 (Regeneron, published 2014)

Assays:
[1] = biological target: T1, mouse TL1A, soluble, CHO-expressed, residues 76-252 of SEQ ID NO:250 with N-terminal His6-tag (mouse, UniProt Q5UBV8 76-252); assay: SPR 37C, mAb captured
T1 construct: also called mTL1A; mTL1A (CHO)
T1 sequence: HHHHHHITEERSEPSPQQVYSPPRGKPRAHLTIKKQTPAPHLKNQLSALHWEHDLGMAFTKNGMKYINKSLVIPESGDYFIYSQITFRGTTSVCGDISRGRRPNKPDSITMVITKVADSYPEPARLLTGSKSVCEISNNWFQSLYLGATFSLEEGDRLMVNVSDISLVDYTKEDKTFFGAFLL
Outline: (§1)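 Biacore T100 SPR with captured mAb and soluble TL1A/Fhm analyte; ka and kd fitted to a 1:1 model assuming monomeric TL1A. KD = kd/ka; t1/2 (min) = ln2/(60·kd).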

[2] = biological target: T2, full length human TL1A expressed on HEK293 cells (human, UniProt O95150 1-251); assay: flow, HEK293/hTL1A, mAb 0.1 ug/ml + 3 ug/ml soluble hTL1A
T2 construct: also called HEK293/hTL1A; cell-surface hTL1A
T2 sequence: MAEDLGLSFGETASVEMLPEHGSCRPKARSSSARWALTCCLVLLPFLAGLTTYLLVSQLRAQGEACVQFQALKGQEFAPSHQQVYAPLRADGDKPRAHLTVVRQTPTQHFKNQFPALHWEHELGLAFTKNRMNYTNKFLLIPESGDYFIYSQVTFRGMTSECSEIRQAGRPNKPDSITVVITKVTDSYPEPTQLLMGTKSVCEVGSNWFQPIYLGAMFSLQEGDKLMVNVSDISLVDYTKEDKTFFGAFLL
Method: (§2) Human embryonic kidney 293 cells stably transfected to over-express cell-surface hTL1A were first stained in a flow cytometric experiment with eight anti-hTL1A antibodies at four concentrations (1, 0.1, 0.01, and 0.003 μg/ml). […] The lowest antibody concentration providing significant staining levels was then used in a competition binding experiment. A negative isotype control antibody (human IgG4) was used at 1 μg/ml to define the background signal. For the competition experiment, eight antibody samples, at the minimal concentrations identified above, were first treated with soluble hTL1A expressed from CHO cells at concentrations ranging from 0.03 μg/ml to 10 μg/ml. After pre-incubation for 30 min on ice, the antibody/hTL1A mixture was added to 293/HEK-hTL1A cells that had been isolated by centrifugation in a 96-well conical plate. After incubation for an additional 10 minutes on ice, the cells were washed. The secondary reagent, anti-h Fcγ-APC F(ab′)₂, was added to all wells at a 200-fold dilution to detect bound antibodies. Samples were incubated for 15 minutes on ice, away from light, and then washed. Cells were processed on an BD™ LSR II Flow Cytometer (BD Biosciences) to detect anti-hTL1A antibodies bound to the cell surface, and data were analyzed using FlowJo software (version 8.8.6; Tree Star Inc.). Maximum signal: Anti-hTL1A antibody binding in the absence of soluble hTL1A; Minimum signal: Signal recorded when […] of isotype control antibody was added in place of the anti-hTL1A antibody. NT: Not tested.

[3] = biological target: T1, mouse TL1A, soluble, CHO-expressed, …; assay: SPR 25C, mAb captured
Outline: as §1

[4] = biological target: T2, full length human TL1A expressed on …; assay: flow, HEK293/hTL1A, mAb 0.1 ug/ml + 0.03 ug/ml soluble hTL1A
Method: as §2

[5] = biological target: T3, human TL1A, soluble, CHO-expressed, residues 72-251 of SEQ ID NO:244 with N-terminal His6-tag (human, UniProt O95150 72-251); assay: cell-based or functional assay
T3 sequence: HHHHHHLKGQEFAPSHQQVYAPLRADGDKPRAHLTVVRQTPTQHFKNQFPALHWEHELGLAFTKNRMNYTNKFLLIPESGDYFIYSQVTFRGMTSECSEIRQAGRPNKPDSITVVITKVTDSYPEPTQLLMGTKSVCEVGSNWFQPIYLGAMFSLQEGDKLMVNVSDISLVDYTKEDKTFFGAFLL

[6] = biological target: T3, human TL1A, soluble, CHO-expressed, …; assay: SPR 37C, mAb captured; kd set at 1e-6 1/s
Method: Measurements were conducted on a T100 BIACORE™ instrument. […] Kinetic association (kₐ) and dissociation (kd) rate constants were determined by fitting the data to a 1:1 binding model using BIAevaluation 4.1 curve fitting software (BIAcore Life Sciences). Molar concentrations of TL1A/Fhm used in the data fitting assumed a monomeric state for TL1A in solution. Binding dissociation equilibrium constants (KD) and dissociative half-lives (t_{1/2}) were calculated from the kinetic rate constants as: KD (M)=kd/kₐ; and t_{1/2} (min)=[In2/(60*kd)].

Row | Binder | binding result [1] | MFI [2] | MFI [4] | % Blocking IFN-g, D1, 1 ug/ml mAb [5] | % Blocking IFN-g, D1, 3 ug/ml mAb [5] | % Blocking IFN-g, D2, 1 ug/ml mAb [5] | % Blocking IFN-g, D2, 3 ug/ml mAb [5] | % Blocking IFN-g, D3, 1 ug/ml mAb [5] | % Blocking IFN-g, D3, 3 ug/ml mAb [5] | % Blocking IFN-g, D4, 1 ug/ml mAb [5] | % Blocking IFN-g, D4, 3 ug/ml mAb [5] | % Blocking IFN-g, D5, 1 ug/ml mAb [5] | % Blocking IFN-g, D5, 3 ug/ml mAb [5] | % Blocking IFN-g, D6, 1 ug/ml mAb [5] | % Blocking IFN-g, D6, 3 ug/ml mAb [5] | % Blocking IFN-g, D7, 1 ug/ml mAb [5] | % Blocking IFN-g, D7, 3 ug/ml mAb [5] | % Blocking IFN-g, D8, 1 ug/ml mAb [5] | % Blocking IFN-g, D8, 3 ug/ml mAb [5] | % Blocking IFN-g, D9, 1 ug/ml mAb [5] | also measured
1 | H4H1752P (antibody, human IgG4 S228P, V domains shown) VH: EVQLVESGGGLVQPGGSLRLSCSASGFTFSKYVMTWVRQAPGKGLEWVSAIGPTGRTTEYADSVQGRFTISRDNSMNTVFLHLNSLTAEDTAEYYCAKMFDWNYDVYFDSWGQGTLVTVSS VL: DIQMTQSPSILSASVGDRVTITCRTSQSISNWLAWYQQKPGKAPNLLIYKASSLESGVPSRFSGSGSGTEFTLTISSLQPDDFATYYCQQYYRYWTFGQGTKVEIK | no binding (tested: up to 100 nM) |  |  |  |  |  |  |  |  |  |  |  |  |  |  |  |  |  |  |  | 
2 | H4H1805N (antibody, human IgG4 S228P, V domains shown, human IgG4(S108P) form of H2M1805N) VH: QVQLQQWGAGLLKPSETLSLTCAVYGGSFTGFYWSWIRQPPGKGLEWIGEINHRGNTNYNPSLKSRVTMSVDTSKNQFSLNMISVTAADTAMYFCASPFYDFWSGSDYWGQGTLVTVSS VL: DIMLTQTPLTSPVTLGQPASISCKSSQSLVHSDGNTYLSWLQQRPGQPPRLLFYKISNRFSGVPDRFSGSGAGTDFTLKISRVEAEDVGVYYCMQATQFPLTFGGGTKVEIK |  | 23.6 | 156 | 100% | 100% | 100% | 100% | 90% | 95% | 100% | 100% | 100% | 80% | 100% | 100% | 100% | 100% | 100% | 100% | 90% | binding result [3]: no binding (tested: up to 100 nM); % Blocking IFN-g, D9, 3 ug/ml mAb [5]: 70%; % Blocking IFN-g, D10, 1 ug/ml mAb [5]: 100%; % Blocking IFN-g, D10, 3 ug/ml mAb [5]: 100%
3 | H4H1804N (antibody, human IgG4 S228P, V domains shown, human IgG4(S108P) form of H2M1804N) VH: QVQLHQWGAGLLKPSETLSLTCAVSGVSFSDYHWAWIRQSPGKGLEWIGDINHRGRTNYNPSLKSRVTISLDTSGNPFSLKLTSVTAADTAVYYCARDFPNWVFDSWGQGILVTVSS VL: EIVLSQSPGTLSLSPGERATLSCRASQSVSSSFLAWYQQYPGQAPRLLIYGASRRATGIPDRFRGSGSGTDFTLTISRLEPEDFAVYYCQQYGSSPLTFGGGTKVENK | no binding (tested: up to 100 nM) | 28.9 | 126 | 95% | 100% | 100% | 100% | 80% | 95% | 90% | 100% | 100% | 100% | 50% | 100% | 10% | 100% | 100% | 100% | 50% | % Blocking IFN-g, D9, 3 ug/ml mAb [5]: 100%; % Blocking IFN-g, D10, 1 ug/ml mAb [5]: 0%; % Blocking IFN-g, D10, 3 ug/ml mAb [5]: 80%
4 | H4H1818N (antibody, human IgG4 S228P, V domains shown, human IgG4(S108P) form of H2M1818N) VH: RLQLVESGGGLVKPGGSLKLSCAASGFTISDYYMSWIRQAPGKGLEWVSYIGGSGSTIYYADSVKGRFTISRDNAKNSLYLQMNSLRAEDTAVYYCAREDADSYYYYGMDVWGQGTTVTVSS VL: not shown |  |  |  |  |  |  |  |  |  |  |  |  |  |  |  |  |  |  |  |  | Kd [6]: ≤ 0.000925 nM; t1/2 [6]: ≥ 192 h
5 | H4H1704N (antibody, human IgG4 S228P, V domains shown, human IgG4(S108P) form of H2M1704N) VH: EVQLVESGGGLVQPGGSLRLSCAVSGFTFSSYWMSWVRQAPGKGLEWVANIKEDGSEKNYVDSVKGRFTLSSDNAKNSLYLQMNSLRAEDTAVYYCAREDYDSYYKYGMDVWGQGTAVIVSS VL: not shown |  | 22.6 | 163 |  |  |  |  |  |  |  |  |  |  |  |  |  |  |  |  |  | Kd [3]: 0.194 nM; t1/2 [3]: 46 min; Kd [1]: 1.3 nM; t1/2 [1]: 27 min; Kd [6]: ≤ 0.001 nM; t1/2 [6]: ≥ 192 h
6 | H4H1750P (antibody, human IgG4 S228P, V domains shown) VH: QVQLVESGGGVVQPGRSLRLSCVASGFTFSNYGMHWVRQAPGKGLEWVAVISYDGNNDLYSDSVKGRFTISRDNAKNALSLQMTSLRAEDTAVYYCARDSTMTPYYYHGIDVWGQGTTVTVSA VL: DIQMTQSPSSLSASVGDRVTITCRASQDIRNDLGWYQQKPGKAPKRLIYAASSLQSGVPSRFSGSGSGTDFTLTISSLQPEDFATYYCLQHNSYPPTFGQGTKVEIK | no binding (tested: up to 100 nM) |  |  |  |  |  |  |  |  |  |  |  |  |  |  |  |  |  |  |  | Kd [6]: ≤ 0.0138 nM; t1/2 [6]: ≥ 192 h
7 | H4H1725P (antibody, human IgG4 S228P, V domains shown) VH: QVQLVQSGAEVKKPGASVKVSCKASGYTFTGYYMHWVRQAPGQGLEWMGWIKPKSGGTNYVQKFQGRVTMTRDTSINTAYMELNNLKSDDTAVYYCATGGSQDASDFWGQGTMVTVSS VL: DIQMTQSPSSVSASVGGRVTITCRASQDISIWLAWYQQKPGKAPNLLIYAASSLQSGVPSRFSGSGSGTDFTLTISSLQPEDFATYYCQQADSFPLTFGGGTKVEIK |  | 34.9 | 207 | 90% | 95% | 100% | 100% | 70% | 95% | 85% | 100% | 45% | 90% | 80% | 80% | 60% | 90% | 85% | 100% | 50% | % Blocking IFN-g, D9, 3 ug/ml mAb [5]: 90%; % Blocking IFN-g, D10, 1 ug/ml mAb [5]: 95%; % Blocking IFN-g, D10, 3 ug/ml mAb [5]: 100%
8 | H4H1719P (antibody, human IgG4 S228P, V domains shown) VH: EVQLVESGGGLVQPGRSLRLSCVASGFTFQDYAMHWVRQAPGKGLEWVSGINWISDDMGYADSVMGRFTISRDNAKNSLYLQMDSLRAEDTALYYCAKDKGLRFLDYVMDVWGQGTTVTVSA VL: DIVMTQSPLSLPVTPGEPASISCRSTQSLLHRNGHNYLHWYLHKPGQSPQLLIHLGSNRASGVPDRFSGSGSGTDFTLKISRVEAEDVGVYYCMQALQTPYTFGQGTKLEIK | no binding (tested: up to 100 nM) |  |  |  |  |  |  |  |  |  |  |  |  |  |  |  |  |  |  |  | 
9 | H4H1738P (antibody, human IgG4 S228P, V domains shown) VH: EVQLVESGGALVKPGGSLRLSCAVSGFTFINDWMNWVRQAPGKGLEWVGRIKSTTDGGTTDDAAPVKGRFTISRDDSKNTLYLQMNSLKTEDTAVYYCTRDRNRQRNYFYDGMDVWGQGTTVTVSA VL: DIVMTQSPVSLPVTPGEPASISCRSSQRLLHNNGNNYLDWYLQKPGQSPQLLIYLGSNRASGVPDRFSGSGSGTDFTLKVSRVEAEDVGVYYCMQALQTPYTFGQGTKLEIK | no binding (tested: up to 100 nM) |  |  |  |  |  |  |  |  |  |  |  |  |  |  |  |  |  |  |  | 
